Publication PMC9813358, “Insights into the GSDMB-mediated cellular lysis and its targeting by IpaH7.8” (Nature Communications, 2023)

B1: IpaH7.8 protein (residues 23–565) (enzyme)
chain: SNEHYLRILTEWEKNSSPGEERGIAFNRLSQCFQNQEAVLNLSDLNLTSLPELPKHISALIVENNKLTSLPKLPAFLKELNADNNRLSVIPELPESLTTLSVRSNQLENLPVLPNHLTSLFVENNRLYNLPALPEKLKFLHVYYNRLTTLPDLPDKLEILCAQRNNLVTFPQFSDRNNIRQKEYYFHFNQITTLPESFSQLDSSYRINISGNPLSTRVLQSLQRLTSSPDYHGPQIYFSMSDGQQNTLHRPLADAVTAWFPENKQSDVSQIWHAFEHEEHANTFSAFLDRLSDTVSARNTSGFREQVAAWLEKLSASAELRQQSFAVAADATESCEDRVALTWNNLRKTLLVHQASEGLFDNDTGALLSLGREMFRLEILEDIARDKVRTLHFVDEIEVYLAFQTMLAEKLQLSTAVKEMRFYGVSGVTANDLRTAEAMVRSREENEFTDWFSLWGPWHAVLKRTEADRWAQAEEQKYEMLENEYSQRVADRLKASGLSGDADAEREAGAQVMRETEQQIYRQLTDEVLALRLSENGSRLHHS
notes: IpaH7.8, type III secretion effector and E3 ubiquitin ligase of Shigella flexneri; residues 23-565; synthesized fragment; Limits 23-565 are stated for the SEC experiment; source: E. coli BL21 (DE3), purified (Ni-NTA, anion exchange, SEC); not shown: His, N-terminal, cleaved

How the values were obtained:
GSDMB (residues 1-411) [1] = molecular target: T1, GSDMB (residues 1-411) (human, UniProt Q8TAX9-1 1-411); test: ITC; 500 mM NaCl
T1 chain: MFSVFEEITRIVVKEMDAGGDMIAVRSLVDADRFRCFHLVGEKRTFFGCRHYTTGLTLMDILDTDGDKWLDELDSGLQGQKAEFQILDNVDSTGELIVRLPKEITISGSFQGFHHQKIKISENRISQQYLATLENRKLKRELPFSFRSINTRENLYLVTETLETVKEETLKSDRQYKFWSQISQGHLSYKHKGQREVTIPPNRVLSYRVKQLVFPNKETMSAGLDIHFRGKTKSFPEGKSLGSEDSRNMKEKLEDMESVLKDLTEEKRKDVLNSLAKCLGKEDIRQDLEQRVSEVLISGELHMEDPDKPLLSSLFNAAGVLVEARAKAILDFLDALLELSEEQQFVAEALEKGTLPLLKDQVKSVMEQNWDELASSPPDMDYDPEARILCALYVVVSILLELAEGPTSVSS

GSDMB (residues 1-411) [2] = molecular target: T2, GSDMB (residues 1-411) (human, UniProt Q8TAX9-1 1-411); test: ITC; MicroCal PEAQ-ITC, 25 °C; IpaH7.8 proteins injected into the cell containing GSDMB or GSDMD proteins; 25 mM Tris-HCl pH 8.0, 150 mM NaCl unless otherwise stated (one titration of IpaH7.8 into GSDMB in a high salt buffer); conditions: both partners purified
T2 construct: residues 1-411; For the crystal the complex was obtained by co-transforming the GSDMB and IpaH7.8 plasmids; limits 1-411 are stated for the crystallised protein; also called gasdermin B; WT GSDMB; source: E. coli BL21 (DE3), purified (Ni-NTA, anion exchange, SEC); not shown: His, N-terminal, cleaved; MBP, N-terminal, cleaved
T2 sequence: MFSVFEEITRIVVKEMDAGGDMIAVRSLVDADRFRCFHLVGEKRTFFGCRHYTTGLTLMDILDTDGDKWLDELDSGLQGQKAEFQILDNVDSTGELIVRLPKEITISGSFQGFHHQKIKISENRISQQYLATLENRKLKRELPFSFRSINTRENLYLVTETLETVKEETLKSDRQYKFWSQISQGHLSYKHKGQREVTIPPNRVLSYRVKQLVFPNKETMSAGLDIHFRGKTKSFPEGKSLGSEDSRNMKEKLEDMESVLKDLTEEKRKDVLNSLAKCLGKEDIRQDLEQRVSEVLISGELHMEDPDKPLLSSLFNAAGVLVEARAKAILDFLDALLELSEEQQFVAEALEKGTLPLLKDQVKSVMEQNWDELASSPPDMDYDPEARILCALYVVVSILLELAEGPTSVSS

GSDMB (residues 1-411) [3] = molecular target: T1, GSDMB (residues 1-411); test: ITC
[4] = molecular target: B1; test: ITC; MicroCal PEAQ-ITC, 25 °C; IpaH7.8 proteins injected into the cell containing GSDMB or GSDMD proteins; 25 mM Tris-HCl pH 8.0, 150 mM NaCl unless otherwise stated (one titration of IpaH7.8 into GSDMB in a high salt buffer); conditions: both partners purified

| Binder | Kd (GSDMB (residues 1-411) [1]) [nM] | binding affinity in a high salt buffer against that in the standard buffer (GSDMB (residues 1-411) [2]) [fold] | Kd (GSDMB (residues 1-411) [3]) [nM] | binding result [4] |
| --- | --- | --- | --- | --- |
| B1 | 163 | 0.5 | 94 | – |
| N-terminal LRR domain (residues 23–264) of IpaH7.8 (domain or fragment) SNEHYLRILTEWEKNSSPGEERGIAFNRLSQCFQNQEAVLNLSDLNLTSLPELPKHISALIVENNKLTSLPKLPAFLKELNADNNRLSVIPELPESLTTLSVRSNQLENLPVLPNHLTSLFVENNRLYNLPALPEKLKFLHVYYNRLTTLPDLPDKLEILCAQRNNLVTFPQFSDRNNIRQKEYYFHFNQITTLPESFSQLDSSYRINISGNPLSTRVLQSLQRLTSSPDYHGPQIYFSMSD | – | – | 90 | – |
| human GSDMD (natural protein, also called hGSDMD; WT hGSDMD; source: E. coli BL21 (DE3), purified (same protocol as GSDMB); not shown: His, N-terminal, cleaved; MBP, N-terminal, cleaved) MGSAFERVVRRVVQELDHGGEFIPVTSLQSSTGFQPYCLVVRKPSSSWFWKPRYKCVNLSIKDILEPDAAEPDVQRGRSFHFYDAMDGQIQGSVELAAPGQAKIAGGAAVSDSSSTSMNVYSLSVDPNTWQTLLHERHLRQPEHKVLQQLRSRGDNVYVVTEVLQTQKEVEVTRTHKREGSGRFSLPGATCLQGEGQGHLSQKKTVTIPSGSTLAFRVAQLVIDSDLDVLLFPDKKQRTFQPPATGHKRSTSEGAWPQLPSGLSMMRCLHNFLTDGVPAEGAFTEDFQGLRAEVETISKELELLDRELCQLLLEGLEGVLRDQLALRALEEALEQGQSLGPVEPLDGPAGAVLECLVLSSGMLVPELAIPVVYLLGALTMLSETQHKLLAEALESQTLLGPLELVGSLLEQSAPWQERSTMSLPPGLLGNSWGEGAPAWVLLDECGLELGEDTPHVCWEPQAQGRMCALYASLALLSGLSQEPH | – | – | – | binds |
| hGSDMD S124R (natural protein, human, UniProt P57764 1-484, looked up, GSDMD, human, isoform 1 of UniProtKB P57764; construct as m34; also called hGSDMD bearing the S124R mutation; source: E. coli BL21 (DE3), purified (same protocol as GSDMB); not shown: His, N-terminal, cleaved; MBP, N-terminal, cleaved) MGSAFERVVRRVVQELDHGGEFIPVTSLQSSTGFQPYCLVVRKPSSSWFWKPRYKCVNLSIKDILEPDAAEPDVQRGRSFHFYDAMDGQIQGSVELAAPGQAKIAGGAAVSDSSSTSMNVYSLRVDPNTWQTLLHERHLRQPEHKVLQQLRSRGDNVYVVTEVLQTQKEVEVTRTHKREGSGRFSLPGATCLQGEGQGHLSQKKTVTIPSGSTLAFRVAQLVIDSDLDVLLFPDKKQRTFQPPATGHKRSTSEGAWPQLPSGLSMMRCLHNFLTDGVPAEGAFTEDFQGLRAEVETISKELELLDRELCQLLLEGLEGVLRDQLALRALEEALEQGQSLGPVEPLDGPAGAVLECLVLSSGMLVPELAIPVVYLLGALTMLSETQHKLLAEALESQTLLGPLELVGSLLEQSAPWQERSTMSLPPGLLGNSWGEGAPAWVLLDECGLELGEDTPHVCWEPQAQGRMCALYASLALLSGLSQEPH | – | – | – | binds |
